Measured values taken from IntAct's records for PubMed 27725184.

B1: STAM-binding protein (Homo sapiens), O95630 (parent)
chain: MSDHGDVSLPPEDRVRALSQLGSAVEVNEDIPPRRYFRSGVEIIRMASIYSEEGNIEHAFILYNKYITLFIEKLPKHRDYKSAVIPEKKDTVKKLKEIAFPKAEELKAELLKRYTKEYTEYNEEKKKEAEELARNMAIQQELEKEKQRVAQQKQQQLEQEQFHAFEEMIRNQELEKERLKIVQEFGKVDPGLGGPLVPDLEKPSLDVFPTLTVSSIQPSDCHTTVRPAKPPVVDRSLKPGALSNSESIPTIDGLRHVVVPGRLCPQFLQLASANTARGVETCGILCGKLMRNEFTITHVLIPKQSAGSDYCNTENEEELFLIQDQQGLITLGWIHTHPTQTAFLSSVDLHTHCSYQMMLPESVAIVCSPKFQETGFFKLTDHGLEEISSCRQKGFHPHSKDPPLFCSCSHVTVVDRAVTITDLR

Variants of: B1
Conditions: with stam2_human STAM2, O75886

| effect of a mutation on the interaction | Variant |
| --- | --- |
| with no effect | K229H |
| decreasing interaction | K238T |
